The target in experiment [1] is T1, human IL-33 (R&D Systems, #3625-IL-010/CF) (human) (UniProt O95760).
T1 sequence (looked up): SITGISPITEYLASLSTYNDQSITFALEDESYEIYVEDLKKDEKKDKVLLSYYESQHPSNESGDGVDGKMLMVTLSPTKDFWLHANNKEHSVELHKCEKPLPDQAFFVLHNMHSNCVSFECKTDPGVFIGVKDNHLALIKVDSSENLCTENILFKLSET

The target in experiment [2] is T2, biotinylated human IL-33 (human) (UniProt O95760).
T2 sequence (biotin-labeled with EZ-LINK NHS-PEG4-Biotin, looked up): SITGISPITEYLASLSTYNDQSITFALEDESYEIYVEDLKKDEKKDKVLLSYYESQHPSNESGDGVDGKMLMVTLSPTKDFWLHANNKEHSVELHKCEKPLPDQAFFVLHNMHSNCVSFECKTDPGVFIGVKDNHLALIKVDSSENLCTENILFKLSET
Description: competitive ELISA, biotin-huIL-33 to coated hST2-Fc. (In general: In an ELISA, binding on a coated surface is turned into a signal by an enzyme label.)

In experiment [3] the target is T1, human IL-33 (R&D Systems, #3625-IL-010/CF) (human). As to the kind of experiment: SPR Biacore T200, 25 C.
The target is the same in experiment [4]. This is another data set of the same source.
Experiment [5] has the same target. This is another data set of the same source.
The target is the same in experiment [6]. The source holds these as a separate data set.
The target is the same in experiment [7]. This is another data set of the same source.
The target is the same in experiment [8]. Description: SPR Biacore T200, 37 C. For orientation: Surface plasmon resonance follows binding to a sensor surface in real time, without labels.
For experiment [9] the target is unchanged. The source holds these as a separate data set.
Experiment [10] shares this target. The source holds these as a separate data set.
For experiment [11] the target is unchanged. This is another data set of the same source.
The target in experiment [12] is human ST2L on HEK-BLUE IL-33/IL-1beta cells (human) (UniProt Q01638).
human ST2L on HEK-BLUE IL-33/IL-1beta cells (human), sequence (Q01638 19-556 limits assumed): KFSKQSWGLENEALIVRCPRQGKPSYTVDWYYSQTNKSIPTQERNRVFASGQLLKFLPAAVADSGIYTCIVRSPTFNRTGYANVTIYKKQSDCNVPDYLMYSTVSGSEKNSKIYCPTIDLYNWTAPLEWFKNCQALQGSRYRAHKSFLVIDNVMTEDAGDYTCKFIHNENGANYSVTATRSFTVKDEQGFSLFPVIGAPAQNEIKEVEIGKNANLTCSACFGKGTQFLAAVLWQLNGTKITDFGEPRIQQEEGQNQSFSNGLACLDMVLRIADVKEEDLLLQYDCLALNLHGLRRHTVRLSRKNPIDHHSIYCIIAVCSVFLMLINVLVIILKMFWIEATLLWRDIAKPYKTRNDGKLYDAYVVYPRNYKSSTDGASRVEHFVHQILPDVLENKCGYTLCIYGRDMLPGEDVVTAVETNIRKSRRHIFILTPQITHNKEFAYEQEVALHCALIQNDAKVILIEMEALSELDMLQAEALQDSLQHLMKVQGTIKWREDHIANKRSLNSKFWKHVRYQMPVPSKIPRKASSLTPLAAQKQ
The target is the same in experiment [13]. This is another data set of the same source.

Like-named read-outs stand apart in the source and are kept apart here.

B1: H4H9660P (antibody, from another filing, IgG4, V domains shown)
VH: EVQLVESGGGLVQPGGSLRLSCAASGITLSSYGMSWVRQAPGKGLEWVASIFGSGGGPYYADSVKGRFTMSRDNSKNTLYLQMNSLRAEDTAVYYCAKDRYSGSYYGGFDYWGRGTLVTVSS
VL: DIQMTQSPSSVSASVGDRVTITCRASQGITSWLAWYQQKPGKAPTLLIYAASSLQTGVPSRFSGSGSGTDFTLTISSLQPEHFATYYCQQANSFPPTFGGGTKVEIK
In general, IC50 refers to the concentration at which inhibition is half-maximal. As a reminder, the Kd is the concentration at which binding is half-saturated. A high value points to weaker binding. As a reminder, the koff is the first-order rate constant of dissociation. The term kon denotes a measure of how fast the partners come together. Read a high kon as faster complex formation. In [1], B1 returned an IC50, IL-33-induced phospho-p38 in primary human basophils, 500 pM hIL-33 of 4.8e-13 M. In experiment [2], this molecule displayed an IC50 of 0.092 nM and a Maximum Blocking of 78%. In experiment [3], this molecule had a Kd of 0.67 nM, a koff of 0.00039 s⁻¹, a kon of 581000 M⁻¹ s⁻¹ and a t1/2 of 30 min. Further, the IC50; SEAP reporter (OD 620), HEK-BLUE IL-33/IL-1beta cells, 10 pM hIL-33 in experiment [4] was determined as 3.8e-11 M. In experiment [5], the IC50; IFN-gamma ELISA, primary human NK cells, 260 pM hIL-33 + IL-12 came to 2.4e-10 M. Also, the IC50 (read off the curve) in experiment [6] turned out to be 0.0005 nM. In [7], this molecule returned a Ph-p38 MFI at 2 nM Ab (500 pM human IL-33, primary basophils) of 29 MFI. In experiment [8], this molecule displayed a Kd of 0.302 nM, a koff of 0.000413 s⁻¹, a kon of 1.37e+06 M⁻¹ s⁻¹ and a t1/2 of 28 min. For the same molecule, the Ph-p38 MFI at 0.4 nM Ab (500 pM human IL-33, primary basophils) in [9] worked out at 105 MFI.

B2: H4H9676P (antibody, from another filing, IgG4, V domains shown)
VH: EVQLVESGGGLVQPGGSLRLSCSASGFTFSSYAMNWVRQAPGKGLEWVTAISGSGGGTYYADSVKGRFTISRDNSKNSLFLQLNSLRAEDTAVYYCAKQTYTSSWYGGFDIWGQGTMVTVSS
VL: DIQMTQSPSSVSASVGDRVTITCRASQGFSSWLAWYQQIPGKAPKLLIYAASRLQSGVPSRFRGSGSGTDFTLTISSLQPEDFATYYCQQANSFPLTFGGGTKVEIK
Consider B2, for which the IC50, IL-33-induced phospho-p38 in primary human basophils, 500 pM hIL-33 in experiment [1] is 9.1e-13 M. In experiment [2], this molecule had an IC50 of 0.97 nM and a Maximum Blocking of 73%. In [3], this molecule registered a Kd of 0.56 nM, a koff of 0.001 s⁻¹, a kon of 1.79e+06 M⁻¹ s⁻¹ and a t1/2 of 12 min. In [10], this molecule gave an IC50 (read off the curve) of 0.0009 nM. Also, the IC50; SEAP reporter (OD 620), HEK-BLUE IL-33/IL-1beta cells, 10 pM hIL-33 in experiment [4] worked out at 8.2e-10 M. The IC50; IFN-gamma ELISA, primary human NK cells, 260 pM hIL-33 + IL-12 in experiment [5] came out at 1.2e-09 M. Besides, the Ph-p38 MFI at 2 nM Ab (500 pM human IL-33, primary basophils) in experiment [7] came to 61 MFI. In [8], this molecule registered a Kd of 0.457 nM, a koff of 0.00158 s⁻¹, a kon of 3.47e+06 M⁻¹ s⁻¹ and a t1/2 of 7 min. This molecule registered a Ph-p38 MFI at 0.4 nM Ab (500 pM human IL-33, primary basophils) in experiment [9] of 132 MFI.

B3: H4H9667P (antibody, from another filing, IgG4, V domains shown)
VH: EVQLVESGGGLVQPGGSLRLSCAASGFTFSTYSMHWVRQAPGKGLEYVSTINNNGDTTYYADSVKGRFTISRDNSKNTLYLQLGSLRPEDMAVYYCARQTYTSSWYGGFDSWGQGTLVTVSS
VL: DIQMTQSPSSVSASVGDRVTITCRASQGITSWLAWYQQKPGKAPKLLIYAASNLQSGVPSRFSGSGSGTDFTLTITSLQPEDFATYYCQQANSLPFTFGPGTKVDIK
In turn, B3 returned an IC50, IL-33-induced phospho-p38 in primary human basophils, 500 pM hIL-33 in experiment [1] of 2e-12 M. In [2], the IC50 was determined as 0.41 nM and the Maximum Blocking is 77%. Also, in [3], the Kd was found to be 0.525 nM, the koff was 0.000328 s⁻¹, the kon was found to be 626000 M⁻¹ s⁻¹ and the t1/2 stood at 35 min. Moreover, in [4], the IC50; SEAP reporter (OD 620), HEK-BLUE IL-33/IL-1beta cells, 10 pM hIL-33 worked out at 1e-09 M. The same molecule yielded an IC50 (read off the curve) in experiment [11] of 0.002 nM. The molecule further returned a Ph-p38 MFI at 2 nM Ab (500 pM human IL-33, primary basophils) in [7] of 68 MFI. In experiment [8], this molecule gave a Kd of 0.411 nM, a koff of 0.000497 s⁻¹, a kon of 1.21e+06 M⁻¹ s⁻¹ and a t1/2 of 23 min. Also, in experiment [9], the Ph-p38 MFI at 0.4 nM Ab (500 pM human IL-33, primary basophils) turned out to be 111 MFI.

B4: cynomolgus monkey N-terminal 6-His-tagged and C-terminal Avi-tagged IL-33 (S112-T270) (ligand)
chain: MHHHHHHGENLYFQGSITGISPITESLASLSTYNDQSITFALEDESYEIYVEDLKKDKKKDKVLLSYYESQHPSSESGDGVDGKMLMVTLSPTKDFWLQANNKEHSVELHKCEKPLPDQAFFVLHNRSFNCVSFECKTDPGVFIGVKDNHLALIKVDYSENLGSENILFKLSETGNSGGGLNDIFEAQKIEWHE
Take B4: the EC50 (SEAP reporter OD 620, HEK-BLUE IL-33/IL-1beta cells) amounted to 0.0087 nM in experiment [12] and 0.021 nM in [13].

The values are drawn from patent US20190092852A1.
